{"source": "patent US20250263490A1", "about": "(VIB VZW, published 2025)", "key": {"[1]": {"target": "T1, recombinant human domain 1-3His6 of the cation-independent mannose-6-phosphate receptor (human, UniProt P11717 41-467)", "T1 construct": "Biotinylated (NHS-PEG4-biotin) for BLI; Glycosylated; also called hDom1-3His6; hCI-M6PRD1-D3", "experiment": "BLI"}, "[2]": {"target": "T2, human cation-independent mannose-6-phosphate receptor, native, on cells (human, UniProt P11717 41-2491)", "T2 construct": "whole, on cells; also called native CI-M6PR; cell-surface hCI-M6PR", "experiment": "flow cytometry, FLAG3-His6 VHH on HEK293T cells", "text": "(§1) Synthetic DNA fragments encoding VHHs were ordered (IDT, Leuven, Belgium) and subcloned into an E. coli expression vector under control of an IPTG-inducible lac promoter, in frame with N-terminal PelB signal peptide (which directs the recombinant proteins to the periplasmic compartment) and C-terminal FLAG3 and His6 tags. […] VHH proteins were purified from these clones by means of IMAC chromatography followed by desalting according to well established procedures¹⁰⁶. Cells used herein were recovered using cell dissociation non-enzymatic solution (Sigma Aldrich, cat. #C5914-100ML) and resuspended to a final concentration of 1,000,000 cells/mL in FACS buffer. Cells were incubated with different concentrations of purified FLAG3-tagged VHHs for 30 minutes on ice with shaking, followed by washing and incubation with mouse M2 anti-Flag mAb (Sigma Aldrich, cat. #F-1804) in FACS buffer for 30 min on ice with shaking, followed again by washing. […] Flow cytometry and analysis were done on an Attune NxT Flow Cytometer (Thermo Fisher Scientific).\nMoreover, cross-reactivity to mouse CI-M6PR was analyzed, in view of the amino acid homology between mouse and human being overall about 80% identity, but for domain 1-3 of CI-M6PR just about 75% identity."}, "[3]": {"target": "T3, mouse cation-independent mannose-6-phosphate receptor on cells (mouse, UniProt Q07113 36-2483)", "T3 construct": "whole, on cells; also called mouse CI-M6PR of bEND3 cells; mCI-M6PR", "T3 sequence (Q07113 36-2483)": "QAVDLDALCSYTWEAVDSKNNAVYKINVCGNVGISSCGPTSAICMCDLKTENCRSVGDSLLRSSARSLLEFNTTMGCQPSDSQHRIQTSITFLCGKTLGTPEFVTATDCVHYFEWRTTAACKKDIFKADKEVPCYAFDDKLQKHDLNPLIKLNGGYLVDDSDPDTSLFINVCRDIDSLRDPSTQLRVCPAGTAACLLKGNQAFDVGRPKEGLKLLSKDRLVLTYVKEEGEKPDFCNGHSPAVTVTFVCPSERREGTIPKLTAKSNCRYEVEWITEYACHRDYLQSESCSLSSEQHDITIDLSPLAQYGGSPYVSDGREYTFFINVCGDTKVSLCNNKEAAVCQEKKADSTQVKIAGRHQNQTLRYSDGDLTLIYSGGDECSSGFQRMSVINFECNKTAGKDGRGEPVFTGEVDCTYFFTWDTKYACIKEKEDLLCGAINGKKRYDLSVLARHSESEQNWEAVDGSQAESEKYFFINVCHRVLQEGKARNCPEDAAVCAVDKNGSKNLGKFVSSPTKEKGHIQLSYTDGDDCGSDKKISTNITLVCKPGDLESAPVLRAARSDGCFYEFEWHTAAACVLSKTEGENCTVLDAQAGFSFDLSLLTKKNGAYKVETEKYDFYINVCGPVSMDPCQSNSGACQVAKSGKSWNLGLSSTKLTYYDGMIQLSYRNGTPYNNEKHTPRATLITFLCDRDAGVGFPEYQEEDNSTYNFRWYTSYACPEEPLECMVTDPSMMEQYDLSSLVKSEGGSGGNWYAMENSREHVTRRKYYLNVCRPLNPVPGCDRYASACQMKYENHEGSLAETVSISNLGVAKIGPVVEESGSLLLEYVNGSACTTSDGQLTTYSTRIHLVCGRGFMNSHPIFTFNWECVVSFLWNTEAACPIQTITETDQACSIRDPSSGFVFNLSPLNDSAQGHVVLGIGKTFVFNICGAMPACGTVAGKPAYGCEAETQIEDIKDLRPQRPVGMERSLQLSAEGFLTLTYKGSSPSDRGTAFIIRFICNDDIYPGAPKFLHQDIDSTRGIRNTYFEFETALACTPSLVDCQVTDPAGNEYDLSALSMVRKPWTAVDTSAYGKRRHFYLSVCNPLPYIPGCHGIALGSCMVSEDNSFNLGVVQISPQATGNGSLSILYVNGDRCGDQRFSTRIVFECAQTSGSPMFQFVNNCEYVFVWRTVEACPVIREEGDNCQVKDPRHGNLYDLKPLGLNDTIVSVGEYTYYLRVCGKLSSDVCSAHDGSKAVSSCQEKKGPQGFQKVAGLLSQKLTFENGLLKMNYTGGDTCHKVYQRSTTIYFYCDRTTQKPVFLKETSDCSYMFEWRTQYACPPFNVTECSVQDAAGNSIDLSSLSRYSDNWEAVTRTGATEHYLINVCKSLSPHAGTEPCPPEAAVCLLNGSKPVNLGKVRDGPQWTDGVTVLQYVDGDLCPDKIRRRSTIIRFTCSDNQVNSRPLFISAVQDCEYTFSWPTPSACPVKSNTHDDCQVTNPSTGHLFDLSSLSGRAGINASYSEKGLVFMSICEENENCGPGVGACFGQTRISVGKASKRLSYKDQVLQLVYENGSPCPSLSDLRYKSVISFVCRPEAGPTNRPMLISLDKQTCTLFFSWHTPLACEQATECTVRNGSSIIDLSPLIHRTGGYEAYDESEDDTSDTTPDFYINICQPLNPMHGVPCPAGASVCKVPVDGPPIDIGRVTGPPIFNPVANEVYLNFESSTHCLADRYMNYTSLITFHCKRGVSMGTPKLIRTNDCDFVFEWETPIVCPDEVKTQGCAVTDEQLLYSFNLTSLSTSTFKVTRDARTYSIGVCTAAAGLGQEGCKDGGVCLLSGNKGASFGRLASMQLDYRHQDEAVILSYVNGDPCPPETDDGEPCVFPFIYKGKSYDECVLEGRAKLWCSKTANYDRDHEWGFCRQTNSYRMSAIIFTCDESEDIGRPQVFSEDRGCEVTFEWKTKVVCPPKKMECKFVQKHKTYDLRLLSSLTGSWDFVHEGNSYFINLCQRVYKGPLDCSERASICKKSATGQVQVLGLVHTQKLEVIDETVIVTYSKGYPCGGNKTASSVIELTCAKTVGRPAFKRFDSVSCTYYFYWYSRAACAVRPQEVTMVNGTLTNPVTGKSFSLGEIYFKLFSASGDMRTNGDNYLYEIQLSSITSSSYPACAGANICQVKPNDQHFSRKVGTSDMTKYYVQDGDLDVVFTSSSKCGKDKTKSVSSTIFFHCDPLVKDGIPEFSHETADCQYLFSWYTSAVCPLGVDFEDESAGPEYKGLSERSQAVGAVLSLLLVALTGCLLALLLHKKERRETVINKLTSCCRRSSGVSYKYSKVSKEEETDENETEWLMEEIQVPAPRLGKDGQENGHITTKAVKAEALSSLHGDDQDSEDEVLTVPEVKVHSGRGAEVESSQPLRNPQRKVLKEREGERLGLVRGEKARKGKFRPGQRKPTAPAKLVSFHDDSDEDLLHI", "experiment": "flow cytometry on fixed/permeabilised mouse bEND3 cells (sheet: Binding FACS in bEND3 (Fixed/Permeabilized); legend: internalisation detected upon permeabilisation) [upper graph]", "text": "as §1"}, "M85E": {"target": "T4, M85E", "T4 construct": "also called human CI-M6PR Dom1-3His6 M85E", "T4 chain": "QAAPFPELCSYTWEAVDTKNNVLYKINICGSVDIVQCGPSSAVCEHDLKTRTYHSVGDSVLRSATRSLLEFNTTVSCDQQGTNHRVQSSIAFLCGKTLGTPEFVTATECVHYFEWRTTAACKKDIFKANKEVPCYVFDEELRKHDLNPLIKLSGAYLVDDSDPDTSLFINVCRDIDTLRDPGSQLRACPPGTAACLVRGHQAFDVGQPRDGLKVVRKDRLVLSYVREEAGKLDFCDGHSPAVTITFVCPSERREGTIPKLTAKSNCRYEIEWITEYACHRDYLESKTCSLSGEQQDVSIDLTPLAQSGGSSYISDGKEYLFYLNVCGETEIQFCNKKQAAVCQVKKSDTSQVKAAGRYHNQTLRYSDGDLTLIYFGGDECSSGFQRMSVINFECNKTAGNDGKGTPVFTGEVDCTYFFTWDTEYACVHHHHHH", "experiment": "ELISA on coated antigen (100 ng), anti-VHH-HRP, A450", "outline": "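Each purified mutant coated at 100 ng per well in 50 mM MES, 150 mM NaCl, pH 6.5 overnight at 4° C; coating-only wells used for background correction. Detection with anti-VHH-HRP, stopped after five minutes with 2N H₂SO₄, read at 450 nm with 655 nm correction.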"}, "[4]": {"target": "T1, recombinant human domain 1-3His6 of the …", "experiment": "BLI exp 2, dissoc pH not printed (between 7 and 6, presumably 6.5)"}, "[5]": {"target": "T1, recombinant human domain 1-3His6 of the …", "experiment": "BLI exp 2, dissoc pH not printed (between 7 and 6, presumably 6.5); pH not given; row between pH 7 and pH 6 (6.5 in the VHH1, VHH7 and VHH8 blocks)"}, "[6]": {"target": "T1, recombinant human domain 1-3His6 of the …", "experiment": "BLI, global 1:1 fit, pH 7.4", "experimental": "(§2) FIGS. 58 & 59. […] BLI was performed on an Octet Red96 (FortéBio) instrument in kinetics buffer (0.2 M Na₂HPO₄, 0.1 M Na⁺ citrate, 0.01% bovine serum albumin, 0.002% Tween-20). Biotinylated human domain₁₋₃His₆ was immobilized on Streptavidin SA biosensors (Sartorius) to a signal of 0.6 nm. […] Between assays, biosensors were regenerated by three times 10 s exposure to regeneration buffer (10 mM glycine pH 3). The degree of association and dissociation was measured in δ nm over time (s).\n(§3) After loading, the tips were incubated with VHHs serially diluted in pH 7.4 kinetic buffer during the association phase and dissociation was performed at pH 7.4, pH 6.5, pH 6.0, pH 5.5 and pH 5.0. All biosensor tips were then regenerated before analysis of the subsequent VHH. Table 13 summarizes the kinetic parameters retrieved after processing and curve fitting of the BLI measurements. When both association and dissociation were performed at pH 7.4, a global fit was performed according to the 1:1 binding model of which the resulting affinity constants (KD), association (kₒₙ) and dissociation rate constants (koff) are shown. For measurements with association at pH 7.4 and dissociation at pH 6.5, 6.0, 5.5 and 5.0, the depicted dissociation rate constants are an average of the parameters determined by local curve fitting of the dissociation of 200, 100 and 50 nM VHH."}, "[7]": {"target": "T1, recombinant human domain 1-3His6 of the …", "experiment": "BLI, dissoc pH 5, mean of local fits", "experimental": "as §2, §3"}, "[8]": {"target": "T1, recombinant human domain 1-3His6 of the …", "experiment": "BLI, dissoc pH 6, mean of local fits", "experimental": "as §2, §3"}, "[9]": {"target": "T1, recombinant human domain 1-3His6 of the …", "experiment": "BLI, dissoc pH 6.5, mean of local fits", "experimental": "as §2, §3"}}, "data": [{"binder": "anti-CI-M6PR VHH7 (VHH, His6-tagged (Pichia pastoris)) VHH: QVQLQESGGGLVQPGGSLRLSCAASGIIFSDNRMDWYRQAPGKQREWVATLASYGWKTYADSVKGRFTISRDNTKNTVYLRMNSLKPEDTAVYYCKASSPVLNDIWGQGTQVTVSS", "values": [{"measurement": "fold higher dissociation rate at pH 6.0 versus pH 7.4", "setting": "[1]", "value": 5, "unit": "fold"}, {"measurement": "EC50", "setting": "[2]", "value": 20, "unit": "nM"}, {"measurement": "EC50 (read off the curve)", "setting": "[3]", "value": "~50", "unit": "nM"}]}, {"binder": "anti-CI-M6PR VHH5 (VHH, His6-tagged; made in Pichia pastoris, later also in E. coli WK6) VHH: QVQLQESGGGLVQAGGSLKLSCAAAGRTFSRLAMGWFRQAPGKEREFVAAISENGDSIHYSDSVKGRFAVSRDNAKNTVYLQMNSLKPEDTAIYYCAADRAAYYCSGSGCYPSRAPAAASYDYWGQGTQVTVSS", "values": [{"measurement": "EC50 (read off the curve)", "setting": "M85E", "value": "~2", "unit": "nM"}, {"measurement": "koff", "setting": "[4]", "value": 0.00017, "unit": "s⁻¹"}, {"measurement": "kon", "setting": "[5]", "value": "1.3e+06", "unit": "M⁻¹ s⁻¹"}]}, {"binder": "anti-CI-M6PR VHH8 (VHH, His6-tagged (Pichia pastoris)) VHH: QVQLQESGGGLVQAGGSLRLSCEASGRTFNTYNWGWFRQAPGKEREFVAAIRWSSSKTSYADSVKGRFTISRDNAKNTIYLQMNSLKPEDTAVYYCAASIVDFTTNPSHFGSWGQGTQVTVSS", "values": [{"measurement": "EC50", "setting": "[2]", "value": 0.8, "unit": "nM"}, {"measurement": "EC50 (read off the curve)", "setting": "M85E", "value": "~3", "unit": "nM"}]}, {"binder": "anti-CI-M6PR VHH 1H11 (VHH, made in E. coli WK6, His-tag purified) VHH: QVQLQESGGGLVQPGGSLRLSCAASGIIFSDNRMDWYRQAPGKQREWVATLASYGWKTYADSVKDRFTISRDNAKNTVNLYMNSLQPEDTAVYYCNSGQYWGQGTQVTVSS", "values": [{"measurement": "Kd", "setting": "[6]", "value": 4.9, "unit": "nM"}, {"measurement": "koff", "setting": "[6]", "value": 0.0025, "unit": "s⁻¹"}, {"measurement": "kon", "setting": "[6]", "value": 510000, "unit": "M⁻¹ s⁻¹"}, {"measurement": "koff", "setting": "[7]", "value": 0.0083, "unit": "s⁻¹"}, {"measurement": "koff", "setting": "[8]", "value": 0.0051, "unit": "s⁻¹"}, {"measurement": "koff", "setting": "[9]", "value": 0.0048, "unit": "s⁻¹"}]}]}
